Source: patent US20130217060A1 (Butamax(TM) Advanced Biofuels LLC, priority 2007, published 2013)

Legend:
[1] = test system: butyraldehyde dehydrogenase; assay: Acylating aldehyde dehydrogenase activity (NADH formation, 340 nm); conditions: induced E. coli BL21-AI culture, one typical assay
[2] = test system: trans-2-enoyl-CoA reductase; assay: Trans-2-enoyl-CoA reductase activity assay (Hoffmeister et al.); format: biochemical; conditions: induced E. coli BL21-AI culture carrying pRARE, one typical assay
Procedure: Trans-2-enoyl-CoA reductase activity was assayed as described by Hoffmeister et al. (J. Biol. Chem. 280, 4329-4338 (2005)).
Trans-2-enoyl-CoA reductase activity was assayed as described by Hoffmeister et al., J. Biol. Chem. 280:4329 (2005).
Enzyme assays were performed as described above.

Molecule | specific activity (acylating aldehyde dehydrogenase) [1] | specific activity (trans-2-enoyl-CoA reductase) [2]
Ald protein: butyraldehyde dehydrogenase (SEQ ID NO:12) from C. beijerinckii ATCC 35702 expressed in E. coli (protein, listed as Clostridium beijerinckii) MNKDTLIPTTKDLKVKTNGENINLKNYKDNSSCFGVFENVENAISSAVHAQKILSLHYTKEQREKIITEIRKAALQNKEVLATMILEETHMGRYEDKILKHELVAKYTPGTEDLTTTAWSGDNGLTVVEMSPYGVIGAITPSTNPTETVICNSIGMIAAGNAVVFNGHPCAKKCVAFAVEMINKAIISCGGPENLVTTIKNPTMESLDAIIKHPSIKLLCGTGGPGMVKTLLNSGKKAIGAGAGNPPVIVDDTADIEKAGRSIIEGCSFDNNLPCIAEKEVFVFENVADDLISNMLKNNAVIINEDQVSKLIDLVLQKNNETQEYFINKKWVGKDAKLFLDEIDVESPSNVKCIICEVNANHPFVMTELMMPILPIVRVKDIDEAIKYAKIAEQNRKHSAYIYSKNIDNLNRFEREIDTTIFVKNAKSFAGVGYEAEGFTTFTIAGSTGEGITSARNFTRQRRCVLAG | 0.106 µmol/mg/min | 
TER CAC0462 protein: putative trans-2-enoyl-CoA reductase (SEQ ID NO:10) from C. acetobutylicum ATCC 824 expressed in E. coli (protein, listed as Clostridium acetobutylicum) MIVKAKFVKGFIRDVHPYGCRREVLNQIDYCKKAIGFRGPKKVLIVGASSGFGLATRISVAFGGPEAHTIGVSYETGATDRRIGTAGWYNNIFFKEFAKKKGLVAKNFIEDAFSNETKDKVIKYIKDEFGKIDLFVYSLAAPRRKDYKTGNVYTSRIKTILGDFEGPTIDVERDEITLKKVSSASIEEIEETRKVMGGEDWQEWCEELLYEDCFSDKATTIAYSYIGSPRTYKIYREGTIGIAKKDLEDKAKLINEKLNRVIGGRAFVSVNKALVTKASAYIPTFPLYAAILYKVMKEKNIHENCIMQIERMFSEKIYSNEKIQFDDKGRLRMDDLELRKDVQDEVDRIWSNITPENFKELSDYKGYKKEFMNLNGFDLDGVDYSKDLDIELLRKLEP |  | 0.694 µmol/mg/min
